Data reported in PMC7952403 (Nature Communications, 2021).

Molecular target: SARS-CoV-2 RBD-SD1, HEK cell produced (SPR) (Severe acute respiratory syndrome …, UniProt P0DTC2)
Experiment: SPR
Details: both partners purified

B1: STE73-2E9 IgG (antibody, V domains shown)
VH: QVQLVQSGAEVKKPGASVKVSCKASGYTFTSYGISWVRQAPGQGLEWMGWISAYNGNTNYAQKLQGRVTMTTDTSTSTAYMELRSLRSDDTAVYYCARGKFDYWGQGTLVTVSS
VL: QSVLTQPPSVSEAPSQRVTISCSGSSSNIGNNAVNWYQQLPGKAPKLLIYYDDVLPSGVSDRFSGSKSGTSASLAISGLQSGDEADYYCAAWDDSLSGVVFGGGTKLTVL
notes: source: Expi293F, transfected, purified (Protein A); copies: 2 + 2
Kd: 2 nM
